According to patent US20130071379A1:

Biological target: PCSK9
Assay: Biacore SPR

| Binder | Kd |
| --- | --- |
| 1B20 variant A6 (antibody, part only; not given: light chain, V domains shown, part only) VH: QVQLVQSGAEVKKPGESLKISCKGSGYSFTNYYISWVRQMPGKGLEWMGLIYPGDSYTRYNPSFQGQVTISADKSISTAYLQWSSLKASDTAMYYCARDYYSRPFSDIWGQGTLVTVSS | 1.39 nM |
| 1B20 variant B3 (antibody, part only; not given: light chain, probably the common parent VL, V domains shown, part only) VH: QVQLVQSGAEVKKPGESLKISCKGSGYSFTNYYISWVRQMPGKGLEWMGMIYPGDSYTSYNPKFQGQVTISADKSISTAYLQWSSLKASDTAMYYCARDHWSKPYFDIWGQGTLVTVSS | 1.21 nM |
| 1B20 variant F6 (antibody, part only; not given: light chain, probably the common parent VL, V domains shown, part only) VH: QVQLVQSGAEVKKPGESLKISCKGSGYSFTNYYISWVRQMPGKGLEWMGLIYPGDSYTHYNPSFQGQVTISADKSISTAYLQWSSLKASDTAMYYCARDHWYKPFSDIWGQGTLVTVSS | 2.68 nM |
| 1B20 variant F2 (antibody, part only; not given: light chain, V domains shown, part only) VH: QVQLVQSGAEVKKPGESLKISCKGSGYSFTNYYIAWVRQMPGKGLEWMGVIYPGDSYTRYNPKFQGQVTISADKSISTAYLQWSSLKASDTAMYYCARDYWSRPYFDIWGQGTLVTVSS | 1.01 nM |
| 1B20 variant G4 (antibody, part only; not given: light chain, probably the common parent VL, V domains shown, part only) VH: QVQLVQSGAEVKKPGESLKISCKGSGYSFTNYYISWVRQMPGKGLEWMGLIYPGDSYTRYSPRFQGQVTISADKSISTAYLQWSSLKASDTAMYYCARDHGYKPYSDIWGQGTLVTVSS | 2.9 nM |
| 1B20 variant E8 (antibody, part only; not given: light chain, probably the common parent VL, V domains shown, part only) VH: QVQLVQSGAEVKKPGESLKISCKGSGYSFTNYYITWVRQMPGKGLEWMGMIYPGDSYTRYSPKFQGQVTISADKSISTAYLQWSSLKASDTAMYYCARDHWSKPLSDVWGQGTLVTVSS | 1.62 nM |
| 1B20 variant H1 (antibody, part only; not given: light chain, probably the common parent VL, V domains shown, part only) VH: QVQLVQSGAEVKKPGESLKISCKGSGYSFTDYYIAWVRQMPGKGLEWMGIIYPGDSYTRYNPRFQGQVTISADKSISTAYLQWSSLKASDTAMYYCARDYWSKPLSDIWGQGTLVTVSS | 2.01 nM |
| 1B20 variant F1 (antibody, part only; not given: light chain, probably the common parent VL, V domains shown, part only) VH: QVQLVQSGAEVKKPGESLKISCKGSGYSFTDYYISWVRQMPGKGLEWMGLIYPGDSYTNYSPKFQGQVTISADKSISTAYLQWSSLKASDTAMYYCARDHWSKPLSDVWGQGTLVTVSS | 3.47 nM |
| 1B20 variant E2 (antibody, part only; not given: light chain, probably the common parent VL, V domains shown, part only) VH: QVQLVQSGAEVKKPGESLKISCKGSGYSFTNYYISWVRQMPGKGLEWMGLIYPGDSYTRYNRKFQGQVTISADKSISTAYLQWSSLKASDTAMYYCARDYYSRPLSDVWGQGTLVTVSS | 2.62 nM |
| 1B20 variant E1 (antibody, part only; not given: light chain, probably the common parent VL, V domains shown, part only) VH: QVQLVQSGAEVKKPGESLKISCKGSGYSFTNYYISWVRQMPGKGLEWMGMIYPGDSYTSYNPNFQGQVTISADKSISTAYLQWSSLKASDTAMYYCARDHWSKPFFDIWGQGTLVTVSS | 1.36 nM |
| 1B20 variant G3 (antibody, part only; not given: light chain, probably the common parent VL, V domains shown, part only) VH: QVQLVQSGAEVKKPGESLKISCKGSGYSFTNYYISWVRQMPGKGLEWMGLIYPGDSYTRYNPKFQGQVTISADKSISTAYLQWSSLKASDTAMYYCARDYYSRPYSDVWGQGTLVTVSS | 1.53 nM |
| 1B20 variant B1 (antibody, part only; not given: light chain, probably the common parent VL, V domains shown, part only) VH: QVQLVQSGAEVKKPGESLKISCKGSGYSFTDYYISWVRQMPGKGLEWMGIIYPGDSYTHYSPNFQGQVTISADKSISTAYLQWSSLKASDTAMYYCARDYWYTPFFDVWGQGTLVTVSS | 3.73 nM |
| 1B20 variant A1 (antibody, part only; not given: light chain, probably the common parent VL, V domains shown, part only) VH: QVQLVQSGAEVKKPGESLKISCKGSGYSFTDYYISWVRQMPGKGLEWMGLIYPGDSYTRYNPSFQGQVTISADKSISTAYLQWSSLKASDTAMYYCARDYWSKPLSDIWGQGTLVTVSS | 2.15 nM |
| 1B20 variant D5 (antibody, part only; not given: light chain, probably the common parent VL, V domains shown, part only) VH: QVQLVQSGAEVKKPGESLKISCKGSGYSFTNYYITWVRQMPGKGLEWMGLIYPGDSYTRYSPRFQGQVTISADKSISTAYLQWSSLKASDTAMYYCARDHWSRPYSDVWGQGTLVTVSS | 1.6 nM |
| 1B20 variant G5 (antibody, part only; not given: light chain, V domains shown, part only) VH: QVQLVQSGAEVKKPGESLKISCKGSGYSFTDYYISWVRQMPGKGLEWMGLIYPGDSYTRYSPNFQGQVTISADKSISTAYLQWSSLKASDTAMYYCARDHGYRPYSDIWGQGTLVTVSS | 1.65 nM |
| 1B20 variant G8 (antibody, part only; not given: light chain, probably the common parent VL, V domains shown, part only) VH: QVQLVQSGAEVKKPGESLKISCKGSGYSFTDYYISWVRQMPGKGLEWMGLIYPGDSYTHYNPNFQGQVTISADKSISTAYLQWSSLKASDTAMYYCARDHWSKPYFDVWGQGTLVTVSS | 1.51 nM |
| 1B20 variant B2 (antibody, part only; not given: light chain, probably the common parent VL, V domains shown, part only) VH: QVQLVQSGAEVKKPGESLKISCKGSGYSFTNYYISWVRQMPGKGLEWMGLIYPGDSYTNYNPNFQGQVTISADKSISTAYLQWSSLKASDTAMYYCARDHYSTPFFDVWGQGTLVTVSS | 2.21 nM |
| 1B20 variant H4 (antibody, part only; not given: light chain, probably the common parent VL, V domains shown, part only) VH: QVQLVQSGAEVKKPGESLKISCKGSGYSFTNYYITWVRQMPGRGLEWMGIIYPGDSYTRYNPKFQGQVTISADKSISTAYLQWSSLKASDTAMYYCARDHWSKPFSDVWGQGTLVTVSS | 1.52 nM |

| Binder | Kd |
| --- | --- |
| 1B20 variant H8 (antibody, part only; not given: light chain, probably the common parent VL, V domains shown, part only) VH: QVQLVQSGAEVKKPGESLKISCKGSGYSFTDYYISWVRQMPGKGLEWMGMIYPGDSYTHYSQNFQGQVTISADKSISTAYLQWSSLKASDTAMYYCARDHWSRPFFDVWGQGTLVTVSS | 1.35 nM |
| 1B20 variant A8 (antibody, part only; not given: light chain, probably the common parent VL, V domains shown, part only) VH: QVQLVQSGAEVKKPGESLKISCKGSGYSFTNYYISWVRQMPGKGLEWMGMIYPGDSYTHYSPNFQGQVTISADKSISTAYLQWSSLKASDTAMYYCARDYWSKPYFDVWGQGTLVTVSS | 1.19 nM |
| 1B20 variant H5 (antibody, part only; not given: light chain, probably the common parent VL, V domains shown, part only) VH: QVQLVQSGAEVKKPGESLKISCKGSGYSFTDYYISWVRQMPGKGLEWMGIIYPGDSYTSYSPRFQGQVTISADKSISTAYLQWSSLKASDTAMYYCARDYWSRPLFDVWGQGTLVTVSS | 2.41 nM |
| 1B20 variant C1 (antibody, part only; not given: light chain, probably the common parent VL, V domains shown, part only) VH: QVQLVQSGAEVKKPGESLKISCKGSGYSFTNYYISWVRQMPGKGLEWMGMIYPGDSYTRYSPKFQGQVTISADKSISTAYLQWSSLKASDTAMYYCARDHWYRPYSDIWGQGTLVTVSS | 1.65 nM |
| 1B20 variant B6 (antibody, part only; not given: light chain, probably the common parent VL, V domains shown, part only) VH: QVQLVQSGAEVKKPGESLKISCKGSGYSFTDYYISWVRQMPGKGLEWMGIIYPGDSYTNYNPSFQGQVTISADKSISTAYLQWSSLKASDTAMYYCARDYWYRPFSDIWGQGTLVTVSS | 2.88 nM |
| 1B20 variant F4 (antibody, part only; not given: light chain, probably the common parent VL, V domains shown, part only) VH: QVQLVQSGAEVKKPGESLKISCKGSGYSFTDYYISWVRQMPGKGLEWMGLIYPGDSYTRYSPSFQGQVTISADKSISTAYLQWSSLKASDTAMYYCARDYYSKPLFDVWGQGTLVTVSS | 3.14 nM |
| 1B20 variant C2 (antibody, part only; not given: light chain, probably the common parent VL, V domains shown, part only) VH: QVQLVQSGAEVKKPGESLKISCKGSGYSFTDYYIAWVRQMPGKGLEWMGLIYPGDSYTSYNPRFQGQVTISADKSISTAYLQWSSLKASDTAMYYCARDYWSTPYFDIWGQGTLVTVSS | 2.25 nM |
| 1B20 variant B9 (antibody, part only; not given: light chain, V domains shown, part only) VH: QVQLVQSGAEVKKPGESLKISCKGSGYSFTNYYISWVRQMPGKGLEWMGIIYPGDSYIHYNQNFQGQVTISADKSISTAYLQWSSLKASDTAMYYCARDYYSRPFSDIWGQGTLVTVSS | 3.81 nM |
| 1B20 variant B5 (antibody, part only; not given: light chain, probably the common parent VL, V domains shown, part only) VH: QVQLVQSGAEVKKPGESLKISCKGSGYSFTDYYISWVRQMPGKGLEWMGMIYPGDSYTRYSPSFQGQVTISADKSISTAYLQSSSLKASDTAMYYCARDYWYKPFSDVWGQGTLVTVSS | 1.36 nM |
| 1B20 variant C3 (antibody, part only; not given: light chain, probably the common parent VL, V domains shown, part only) VH: QVKLVQSGAEVKKPGESLKISCKGSGYSFTNYYIAWVRQMPGKGLEWMGIIYPGDSYTHYNPKFQGQVTISADKSISTAYLQWSSLKASDTAMYYCARDHGYKPFSDIWGQGTLVTVSS | 4.5 nM |
| 1B20 variant F7 (antibody, part only; not given: light chain, V domains shown, part only) VH: QVQLVQSGAEVKKPGESLKISCKGSGYSFTNYYIAWVRQMPGKGLEWMGIIYPGDSYTHYNPKFQGQVTISADKSISTAYLQWSSLKASDTAMYYCARDHWSRPFSDVWGQGTLVTVSS | 1.26 nM |
| 1B20 variant F8 (antibody, part only; not given: light chain, probably the common parent VL, V domains shown, part only) VH: QVQLVQSGAEVKKPGESLKISCKGSGYSFTNYYISWVRQMPGKGLEWMGMIYPGDSYTNYNQKFQGQVTISADKSISTAYLQWSSLKASDTAMYYCARDYWSRPYSDIWGQGTLVTVSS | 1.35 nM |
| 1B20 variant D4 (antibody, part only; not given: light chain, probably the common parent VL, V domains shown, part only) VH: QVQLVQSGAEVKKPGESLKISCKGSGYSFTDYYIAWVRQMPGKGLEWMGIIYPGDSYTRYNPKFQGQVTISADKSISTAYLQWSSLKASDTAMYYCARDYWSRPFSDVWGQGTLVTVSS | 1.91 nM |
| 1B20 variant B4 (antibody, part only; not given: light chain, probably the common parent VL, V domains shown, part only) VH: QVQLVQSGAEVKKPGESLKISCKGSGYSFTDYYISWVRQMPGKGLEWMGLIYPGDSYTHYNPNFQGQVTISADKSISTAYLQWSSLKASDTAMYYCARDYWSKPLFDVWGQGTLVTVSS | 2.01 nM |
| 1B20 variant A7 (antibody, part only; not given: light chain, V domains shown, part only) VH: QVQLVQSGAEVKKPGESLKISCKGSGYSFTNYYISWVRQMPGKGLEWMGIIYPGDSYTRYNPNFQGQVTISADKSISTAYLQWSSLKASDTAMYYCARDYWSKPLSDVWGQGTLVTVSS | 1.28 nM |
| 1B20 variant G2 (antibody, part only; not given: light chain, probably the common parent VL, V domains shown, part only) VH: QVKLVQSGAEVKKPGESLKISCKGSGYSFTDYYISWVRQMPGKGLEWMGIIYPGDSYTHYNPKFQGQVTISADKSISTAYLQWSSLKASDTAMYYCARDRWSKPLFDVWGQGTLVTVSS | 2.11 nM |
| 1B20 variant A4 (antibody, part only; not given: light chain, probably the common parent VL, V domains shown, part only) VH: QVQLVQSGAEVKKPGESLKISCKGSGYSFTDYYISWVRQMPGKGLEWMGSIYPGDSYTHYSHKFQGQVTISADKSISTAYLQWSSLKASDTAIYYCARDHWSRPFFDVWGQGTLVTVSS | 2.15 nM |
